Here are results for 41 sequences from the nanobody polyreactivity screen of Harvey et al. (2022).

The nature of the data set: yeast display, Sf9 membrane polyspecificity reagent, FACS + sequencing; frameworks hold sequencing errors. In a few lines: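 Synthetic nanobody libraries on Saccharomyces cerevisiae BJ5465 were galactose-induced for 36–48 hours, stained 1 hour at 4 °C with 10% biotinylated, detergent-solubilized Sf9 membrane reagent and enriched on streptavidin microbeads. FACS then separated cells into low and high (top ~1%) gates by anti-HA (expression) and streptavidin (reagent binding) fluorescence. Genes were colony-PCR amplified, MiSeq 2 × 250 sequenced and CDR-length filtered. A clone's polyreactivity label is that of its gate of origin.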
As for “QVQLVESGGGLVQAGGSLRLSCAASGSTLGYYTMGWYRQAPGKERELVAAISGSGVTTSYADSVKGRFTISRDTAKNTVYLQMNSLKPEDTAVYYCARRYRVGTTGGDYWGQGTQVTVSS”, the “polyreactivity (PSR sort gate)” value is reported as “high polyreactivity”.
The entry for “QVQLVESGGGLVQAGGSLRLSCAASGSTLIANAMGWYRQAPGKERELVAGITYRGGDITTYADSVKGSFTNSSDNANNTVYLQINTLKPEDTAVYYCAAPVVWPTWARGGYWGQGTQVTVSS” is “low polyreactivity”; for “QVQLVESGGGLVQAGGSLRLSCAASGSTLIIYAMGWYRQAPGKERELVATISWSGGNTYYADSVKGRFTISRDNAKYTVYLQMNSLKPEDTAVYYCAARWYYYPLLYDYWGQGTQVTVSS” it is “low polyreactivity”.
On to “QVQLVESGGGLVQAGGSLRLSCAASGSTLIRNVMGWYRQAPGKESELDAAITWSGASTYYADSVKGRFTISRDNAKNTVYLQMNSLKPEDTAVYYCAARALNWSRVARYNYWGQGTQVTVSS”, for which the “polyreactivity (PSR sort gate)” value is on record as “high polyreactivity”.
The entry for “QVQLVESGGGLVQAGGSLRLSCAASGSTLITNDMGWYRQAPGKERELVATITYGTGSTYYADSVKGRFTISRDNAKNTVYLQMNSLKPEDTAVYYCNARRNYPKDSDGYDYWGQGTQVTVSS” is “low polyreactivity”; for “QVQLVESGGGLVQAGGSLRLSCAASGSTLLIYVMGWYRQAPGKERELVAAISKRSGSTYYADSVKGRFTISRDNAKNTVYLHMNSLKPEDTAVYYCATRPYVRWYDYWGQATQVTVSS” it is “high polyreactivity”.
On to “QVQLVESGGGLVQAGGSLRLSCAASGSTLLTYTMGWYRQAPGKERELVASITTSGGSTYYADSVKGRFTSSRDNAKNTVYLQMNSLKPEDTAVYYWGQGTQVTVSS”, for which the “polyreactivity (PSR sort gate)” value is reported as “low polyreactivity”.
In the case of “QVQLVESGGGLVQAGGSLRLSCAASGSTLLWNTMGWYRQAPGKERELVAAISITGSTNYADSVKGRFTISRDNEKNTVYLQMNSLKPEDTAVYYCAAPYGLPWWYGSWGQGTQVTVSS”, the “polyreactivity (PSR sort gate)” value was “low polyreactivity”.
For the sequence “QVQLVESGGGLVQAGGSLRLSCAASGSTLNRNVMGWSRQAPGKERQMVAVITYGVGSTYYADSVKGRFTISRDNAKNTHYIQMNSLKPEDTAVYYCNKDPLVFDYWGQGTQVTVSS”, the “polyreactivity (PSR sort gate)” value is on record as “low polyreactivity”.
The same measure for “QVQLVESGGGLVQAGGSLRLSCAASGSTLNYYAMGWYRQAPGKERELVATIDKSGGSTRYADSVKGRFTISRDNAKNTVYLQMNSLKPEDTAVYYCAVDSPYQHDDYWGQGTQVTVSS”: “low polyreactivity”; for “QVQLVESGGGLVQAGGSLRLSCAASGSTLPTNAMLWYRQAPGKEREFVAAISDNGGSTYYADSVKGRFTISRDNAKNTVYLQMNSLKPEDTAVYYCAADNFGPEFYYWGQGTQVTVSS”: “low polyreactivity”.
The entry for “QVQLVESGGGLVQAGGSLRLSCAASGSTLPYYAMGWYRQAPGKERELVAAITSSGGDTYYADSVKGRFTISRDNAKNTVYFQMNSLKPEDTAVYYCAKSYSARSTVRKLFYFAYDYWGQGTQVTVSS” is “low polyreactivity”.
The entry for “QVQLVESGGGLVQAGGSLRLSCAASGSTLPYYAMGWYRQAPGKEWELVAAITSSGGDTYYADSVKGRFTISRDNAKNTVYLQMNSLKTEDTAVYYCAKSYSARSTVRKLFYFAYDYWGQGTQVTVSS” is “low polyreactivity”; for “QVQLVESGGGLVQAGGSLRLSCAASGSTLQNNAMGRYRQAPGKERELVAAISVSDGITYYADSVKGRFTISRDNAKNTVYLQMNSLKPEDTAVYSFAADYSSPWQAVQGDDYWGQGTQVTVSS” it is “low polyreactivity”; for “QVQLVESGGGLVQAGGSLRLSCAASGSTLQRYAMGWYRQAPGKEREFVAAINWSGSNTYYADSVKGRFTISRDNAKNTVYLQMNSLKPEDTAVYYCATNTWLFGGNYWGQGTQVTVSS” it is “high polyreactivity”.
Consider “QVQLVESGGGLVQAGGSLRLSCAASGSTLQSYAMGWYSQAPGKERELVAGIRISGGNTRYADSVKGRFTISRDNAKNTVYLQMNSLKPEDTAVYYCAALTGFYNLRPYGYWGQGTQVTVSS”, for which the “polyreactivity (PSR sort gate)” value is recorded as “high polyreactivity”.
The same measure for “QVQLVESGGGLVQAGGSLRLSCAASGSTLRAYAMGWYRQAPGKERELVAAITRRGGSTSYADSVKGRFTISRDNAKNTVYLQMNSLKPEDTAVYYCARVVVTRHPKSIEYDYWGQGTQVTVSS”: “high polyreactivity”; for “QVQLVESGGGLVQAGGSLRLSCAASGSTLRGNAMGWYRPAPGKERELVAAITGRGTRTYYADSVKGRFTISRDNAKNTVYLQMNSLKPEDTAVYYCAAKGRLYPGWEYYYWGQGTQVTVSS”: “high polyreactivity”.
The entry for “QVQLVESGGGLVQAGGSLRLSCAASGSTLRPYGMGWYRQATGKERELVPTIRSSSGRTYYADSVKGRFTISRDNAKNTVYLLMNSLKPDDTAVYYCNAKYVWYTQRDAYIYDYWGQGTQVTVSS” is “high polyreactivity”; for “QVQLVESGGGLVQAGGSLRLSCAASGSTLRRNAMGWYRPAPGKERELVAAISGTGGSTYYADSVKGRFTISRDNAKNTVYLQMNSLKPEDTAVYYCAATGWYYDYDYWGQGTQVTVSS” it is “low polyreactivity”.
“QVQLVESGGGLVQAGGSLRLSCAASGSTLRRYAMGWSRQAPGKERELVAAISGSGDSTYYADSVKGRFTISRDNAKNTVYLQMNSLKPEDTAVYYCNAVYAFNGYDYWGQGTQVTVSS”: the “polyreactivity (PSR sort gate)” value is “low polyreactivity”.
Take “QVQLVESGGGLVQAGGSLRLSCAASGSTLRRYAMGWYRQAPGKERELVAAISGSGDSTYYADSVKGRFTISRDIAKNTVYLQMNSLKPEDTAVYYCNAVYAFNGYDYWGQGTQVTVSS”: the “polyreactivity (PSR sort gate)” value is “low polyreactivity”.
Turning to “QVQLVESGGGLVQAGGSLRLSCAASGSTLRSYAMGWYRQAPGKERELVAAIDWDGGRTYYADSVKGRFTISRDNAKNTVYLQMNSLKPEDTAVYYCNTSAGWSNGKDEGDFYSGFDYWGQGTQVTVSS”, the “polyreactivity (PSR sort gate)” value is “low polyreactivity”.
In the case of “QVQLVESGGGLVQAGGSLRLSCAASGSTLRYNTMGWYRQAPGTERELVAAIRGSGSSTYYADSVKGRFTISRDNAKNTVYLQMNSLKPEDTAVYYCAARPRWYTYTRQEYDYWGQGTQVTVSS”, the “polyreactivity (PSR sort gate)” value is reported as “high polyreactivity”.
Take “QVQLVESGGGLVQAGGSLRLSCAASGSTLSDKSIGWYRQAPGKEMELVASISWSGGTYYADSVKGRFTISRDNAKNTVYLQMNSLKPEDTAVYYCAAYIYYNYSRQYLYDYWGQGTQVTVSS”: the “polyreactivity (PSR sort gate)” value is given as “low polyreactivity”.
The same measure for “QVQLVESGGGLVQAGGSLRLSCAASGSTLSFYAMGWYRQAPGKERELVAAISYSTGTTYYADSVKGRFTISRDNAKNTVYLQMNSLKPEDTAVYYCAVYWQHNSTRYYYWGQGTQVTVSS”: “high polyreactivity”; for “QVQLVESGGGLVQAGGSLRLSCAASGSTLSHYAMGWYRQAPGKERELVAAINSNGGSTYYADSVKGRFTISRDNAKNTVYLQMNSLKPEDTAVYYCNTYFRYFSFYGRPFDYWGQGTQVTVSS”: “high polyreactivity”; for “QVQLVESGGGLVQAGGSLRLSCAASGSTLSINAMGGYRQAAGKERELVAGITYSGGSEYYADSVKGRFSISRDNAKNNVYLQMNSMKPEDTAVYYCNKASGVYYGHLDYWRQGTQVTVSS”: “low polyreactivity”.
The entry for “QVQLVESGGGLVQAGGSLRLSCAASGSTLSRYTMGWSRQAPGKERELVAAIRSSGGSTYYADSVKGRFTISRDNAKNTVYLQMNSLKPEDTAVYYCARTQQRTTEREHWIRYYYWGQGTQVTVSS” is “low polyreactivity”; for “QVQLVESGGGLVQAGGSLRLSCAASGSTLSSYDMGWYRQAPGKERELVASISSGGSTYYADSVKGRFTISRDNAKNTVYLQMNSVKPEDTAVYYCLYWSYDWGQGTQVTVSS” it is “low polyreactivity”.
The same measure for “QVQLVESGGGLVQAGGSLRLSCAASGSTLSVYVMGWYSQAPGKERELVAAITRGGSTNYADSVKGRFTISRDNAKNTVYLQMISLKPEDTAVYYCAARAFVYYHHGEGSRSGRYYYWGQGTQVTVSS”: “high polyreactivity”; for “QVQLVESGGGLVQAGGSLRLSCAASGSTLTEYAMGWYRQAPGKEREFVAAISRSAGSTYYADSVKGRFTISRDNAKNTVYLQMNSLKPDDTAVYYCAVAVRVGFDYFSGQADIYYYWGQGTQVTVSS”: “low polyreactivity”; for “QVQLVESGGGLVQAGGSLRLSCAASGSTLTEYAMGWYRQAPGKEREFVAAISRSAGSTYYADSVKGRFTISRDNAKNTVYLQMNSLKPEETAVYYCAVAVRVGFDYFSGQADIYYYWGQGTQVTVSS”: “low polyreactivity”.
With “QVQLVESGGGLVQAGGSLRLSCAASGSTLTRNAMGLYRQAPGTERELVATITATGGSTYYADSVKGRFTISRDNAKYTVYLQMNSLKTEDTAVYYCAAAYPTYRHYYWGQGTQVTVSS”, the “polyreactivity (PSR sort gate)” value is “low polyreactivity”.
Consider “QVQLVESGGGLVQAGGSLRLSCAASGSTLTYNAMGWYRQAPGKERELVAVISARGGRTYYADSVKGRFTISRDNAKNTVYLQMNSLKPEDTAVYYCAAVFYYSYYRITSGDYWGQGTQVTVSS”, for which the “polyreactivity (PSR sort gate)” value was “high polyreactivity”.
In the case of “QVQLVESGGGLVQAGGSLRLSCAASGSTLVGNAMGWYRQAPGKERELVATIDLSDDITYYADSVKGRFTISRDKAKNTVYLQMNSLKPEDTAVYYCAAEYYLYSTYTVSYWKYDYWGQGTQVTVSS”, the “polyreactivity (PSR sort gate)” value was “high polyreactivity”.
Turning to “QVQLVESGGGLVQAGGSLRLSCAASGSTLVIYAMGWYRQAPGKERELVAAINFSDGSTSYADSVKGRFSISRDNAKNTVYLQMNRLKPEDTAVYYLGQGTQVTVSS”, the “polyreactivity (PSR sort gate)” value was “low polyreactivity”.
The same measure for “QVQLVESGGGLVQAGGSLRLSCAASGSTLVIYAMGWYRQAPGKERELVAAINFSDGSTSYADSVKGRFTISRDNAKNTVYLQMNSLKPEDTAVFYWGQGTQVTVSS”: “low polyreactivity”; for “QVQLVESGGGLVQAGGSLRLSCAASGSTLVIYAMGWYRQAPGKERELVAAINFSDGSTSYADSVKGRFTISRDNSKTTVYFQMNSLKPEDTAVYYWGQGTQVTVSS”: “low polyreactivity”.
For the sequence “QVQLVESGGGLVQAGGSLRLSCAASGSTLVRNAMGWSRPAPGKERDLVAAITSSGGRTYYADSVKGRFTISRDTAKNTVYLQMNSLKPEDTAVYYCNRVSRYYLYDYWGQGTQVTVSS”, the “polyreactivity (PSR sort gate)” value is given as “high polyreactivity”.
Take “QVQLVESGGGLVQAGGSLRLSCAASGSTLVTYAMGWSRQAPGTERELVAAISYSGGSTYADSVKGRFTISRDNAKNTVYLQMNSLKPEDTAVYYCNSDTSVDVRFDYWGQGTQVTVSS”: the “polyreactivity (PSR sort gate)” value is on record as “low polyreactivity”.
